Experimental data from US20100184663A1 (UNIVERSITY OF UTAH RESEARCH FOUNDATION, published 2010).
Read-outs that look alike come from different tables or passages of the source. Bridge positions count the residues as written; N and C are the ends. Square brackets hold non-standard residues; d marks the D form. Ends that are not written are not given here. I, II: the chains in the order shown.

B1: PEG-(PIE7)2 (peptide)
peptide: Ac-[dK]G[dA][dC][dD][dY][dP][dE][dW][dQ][dW][dL][dC][dA][dA]-NH2
modifications: disulfide 4-13 (inferred); also: dimer: N-terminal Lys of both peptides joined by Bis-dPEG9 NHS ester crosslinker
B2: C5C(PIE7-GK)3 (peptide)
peptide 1: G[dA][dC][dD][dY][dP][dE][dW][dQ][dW][dL][dC][dA][dA]G[dK]
peptide 2: G[dA][dC][dD][dY][dP][dE][dW][dQ][dW][dL][dC][dA][dA]G[dK][dK]
modifications: disulfide I:3-I:12, II:3-II:12 (inferred); also: trimer: two chain 1 copies joined via C-terminal Lys by PEG5 spacers to the C-terminal Lys of central chain 2
B3: PEG-(PIE2-AAA)2 (peptide)
peptide: Ac-[dK]G[dA][dC][dD][dY][dP][dE][dW][dR][dW][dL][dC][dA][dA][dA]-NH2
modifications: disulfide 4-13 (inferred); also: dimer: N-terminal Lys of both peptides joined by bis(NHS-ester)PEG crosslinker

How the values were obtained:
Experiment in all cases: cell-based or functional assay
[1] = molecular target: T1, HIV-1 gp41 (HXB2 strain) (HIV-1 HXB2, UniProt P04578 512-856)
[2] = molecular target: T1, HIV-1 gp41 (HXB2 strain); remark: listed apart in the source
[3] = molecular target: T1, HIV-1 gp41 (HXB2 strain); remark: listed apart in the source
[4] = molecular target: HIV-1 gp41 (JRFL strain) (HIV-1 JRFL)
[5] = molecular target: HIV-1 gp41 (JRFL strain) (HIV-1 JRFL); remark: listed apart in the source

| Binder | IC50 (HXB2), single-cycle viral infectivity assay [2] [nM] | fold improvement of IC50 over the corresponding monomer [1] [fold] | IC50 (HXB2), pseudovirion entry [3] [nM] | IC50 (JRFL), pseudovirion entry [4] [nM] | other results |
| --- | --- | --- | --- | --- | --- |
| Ac-KG[dA][dC][dD][dY][dP][dE][dW][dQ][dW][dL][dC][dA][dA]-NH2 (disulfide 4-13 (inferred); not fully specified (residue 1)) [PEG-PIE7] | 940 |  |  |  | fold reduction in potency against unmodified PIE7, viral entry (HXB2) [1]: ~1.5 fold |
| Ac-[dK][dK]G[dA][dC][dD][dY][dP][dE][dW][dR][dW][dL][dC][dA][dA]-NH2 (disulfide 5-14 (inferred)) [2K-PIE2] | 2570 |  |  |  | fold decrease in fold potency against PIE2, viral entry (HXB2) [1]: ~2 fold |
| B1 | 1.9 | ~325 | 1.9 | 2300 |  |
| B2 |  |  | 0.13 | 6.73 | fold difference in potency against JRFL between C5C-PIE7-trimer and N9N-PIE7-trimer [5]: ~35 fold |
| Ac-[dK]G[dA][dC][dD][dY][dP][dE][dW][dQ][dW][dL][dC][dA][dA]-NH2 (disulfide 4-13 (inferred)) [PIE7] | 620 |  | 620 | 24000 | fold potency against D10-p5, viral entry (HXB2) [1]: ~15 fold; IC50 (JRFL), viral entry [5]: 24400 nM; fold reduction in potency against JRFL compared with HXB2 [5]: ~40 fold |
| B3 |  | ~70 |  |  | IC50 (HXB2), single-cycle viral infectivity assay [1]: 21 nM |
